Key:
Test in all cases: SPR; mouse CACHD1ECD as analyte; FZD CRDs or LRP6 fragments immobilised; equilibrium dissociation constants
[1] = molecular target: human FZD7 cysteine-rich domain (FZD7CRD) (human) (UniProt O75084)
[2] = molecular target: human FZD8 cysteine-rich domain (FZD8CRD) (human) (UniProt Q9H461)
[3] = molecular target: human LRP6 membrane distal fragment (LRP6_(P1E1P2E2)) (human) (UniProt O75581)
Chain of human LRP6 membrane distal fragment (LRP6_(P1E1P2E2)) (human) (O75581 20-1613): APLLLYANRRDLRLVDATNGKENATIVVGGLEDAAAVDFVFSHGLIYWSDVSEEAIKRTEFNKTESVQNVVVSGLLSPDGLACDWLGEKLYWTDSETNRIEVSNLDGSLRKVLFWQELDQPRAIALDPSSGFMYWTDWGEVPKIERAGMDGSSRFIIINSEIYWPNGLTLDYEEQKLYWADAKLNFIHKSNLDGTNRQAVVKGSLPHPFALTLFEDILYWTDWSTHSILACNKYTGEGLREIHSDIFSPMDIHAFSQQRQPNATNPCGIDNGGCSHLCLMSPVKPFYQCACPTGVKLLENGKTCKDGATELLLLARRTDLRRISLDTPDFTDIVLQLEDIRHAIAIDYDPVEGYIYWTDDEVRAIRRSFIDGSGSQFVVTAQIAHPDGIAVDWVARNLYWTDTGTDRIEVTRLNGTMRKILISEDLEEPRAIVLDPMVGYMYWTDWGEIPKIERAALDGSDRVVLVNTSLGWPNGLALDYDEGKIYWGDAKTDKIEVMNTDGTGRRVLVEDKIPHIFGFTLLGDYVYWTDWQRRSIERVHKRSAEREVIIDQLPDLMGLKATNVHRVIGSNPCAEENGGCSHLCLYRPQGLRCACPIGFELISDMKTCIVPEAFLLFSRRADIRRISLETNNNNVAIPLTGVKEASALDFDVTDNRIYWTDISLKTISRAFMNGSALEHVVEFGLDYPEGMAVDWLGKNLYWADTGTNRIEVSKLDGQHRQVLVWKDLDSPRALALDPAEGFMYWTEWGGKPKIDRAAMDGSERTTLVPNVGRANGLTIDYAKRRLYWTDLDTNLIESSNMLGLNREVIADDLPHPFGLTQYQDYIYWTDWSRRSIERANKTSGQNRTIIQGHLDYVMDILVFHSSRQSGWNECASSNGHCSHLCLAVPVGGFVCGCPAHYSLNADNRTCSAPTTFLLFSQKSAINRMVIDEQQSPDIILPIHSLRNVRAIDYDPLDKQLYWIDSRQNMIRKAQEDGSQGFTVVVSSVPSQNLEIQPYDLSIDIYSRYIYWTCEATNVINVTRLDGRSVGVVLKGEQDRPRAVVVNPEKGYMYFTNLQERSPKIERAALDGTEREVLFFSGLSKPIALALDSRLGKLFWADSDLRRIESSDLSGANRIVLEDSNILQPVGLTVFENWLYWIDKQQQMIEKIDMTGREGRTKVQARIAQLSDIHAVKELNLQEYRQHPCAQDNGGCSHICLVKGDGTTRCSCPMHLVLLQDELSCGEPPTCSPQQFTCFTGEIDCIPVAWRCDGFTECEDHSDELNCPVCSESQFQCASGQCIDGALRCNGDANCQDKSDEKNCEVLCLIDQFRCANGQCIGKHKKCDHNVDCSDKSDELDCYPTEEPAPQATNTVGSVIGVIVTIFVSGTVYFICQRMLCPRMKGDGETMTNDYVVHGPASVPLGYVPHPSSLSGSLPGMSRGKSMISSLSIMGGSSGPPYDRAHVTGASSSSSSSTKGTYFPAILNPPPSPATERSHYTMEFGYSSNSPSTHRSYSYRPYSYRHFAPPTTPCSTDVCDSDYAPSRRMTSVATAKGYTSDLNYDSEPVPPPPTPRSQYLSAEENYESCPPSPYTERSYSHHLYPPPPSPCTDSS

Chain of purified mouse CACHD1 extracellular domain (CACHD1ECD) (Q6PDJ1 50-1109): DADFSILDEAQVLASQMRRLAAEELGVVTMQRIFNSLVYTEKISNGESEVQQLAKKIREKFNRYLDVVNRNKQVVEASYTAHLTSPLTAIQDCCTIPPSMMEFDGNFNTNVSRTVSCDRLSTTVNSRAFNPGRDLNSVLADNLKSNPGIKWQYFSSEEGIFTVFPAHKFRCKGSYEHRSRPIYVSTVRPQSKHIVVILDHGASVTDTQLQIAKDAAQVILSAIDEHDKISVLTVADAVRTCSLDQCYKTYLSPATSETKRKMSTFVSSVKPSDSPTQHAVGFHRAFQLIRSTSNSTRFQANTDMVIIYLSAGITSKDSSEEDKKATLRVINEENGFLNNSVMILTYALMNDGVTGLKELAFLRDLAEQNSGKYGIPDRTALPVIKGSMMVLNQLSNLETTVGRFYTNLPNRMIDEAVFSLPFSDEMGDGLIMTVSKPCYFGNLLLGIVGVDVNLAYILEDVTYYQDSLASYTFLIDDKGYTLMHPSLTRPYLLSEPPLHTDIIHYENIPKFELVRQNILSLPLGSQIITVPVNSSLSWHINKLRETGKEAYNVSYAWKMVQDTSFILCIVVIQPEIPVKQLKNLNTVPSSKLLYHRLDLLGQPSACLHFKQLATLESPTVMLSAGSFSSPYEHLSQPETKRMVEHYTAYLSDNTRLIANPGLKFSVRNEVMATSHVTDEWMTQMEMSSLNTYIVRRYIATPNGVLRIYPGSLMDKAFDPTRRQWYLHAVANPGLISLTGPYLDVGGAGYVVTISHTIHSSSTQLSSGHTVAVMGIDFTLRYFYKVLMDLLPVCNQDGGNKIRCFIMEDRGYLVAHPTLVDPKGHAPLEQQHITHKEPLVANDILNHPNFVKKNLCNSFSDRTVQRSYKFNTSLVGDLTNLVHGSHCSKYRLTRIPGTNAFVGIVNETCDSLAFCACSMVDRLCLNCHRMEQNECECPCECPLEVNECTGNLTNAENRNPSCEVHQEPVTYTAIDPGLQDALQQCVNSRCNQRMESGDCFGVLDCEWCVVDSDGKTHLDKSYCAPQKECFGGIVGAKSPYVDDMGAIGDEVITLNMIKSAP
Chain of human FZD8 cysteine-rich domain (FZD8CRD) (human) (Q9H461 28-694): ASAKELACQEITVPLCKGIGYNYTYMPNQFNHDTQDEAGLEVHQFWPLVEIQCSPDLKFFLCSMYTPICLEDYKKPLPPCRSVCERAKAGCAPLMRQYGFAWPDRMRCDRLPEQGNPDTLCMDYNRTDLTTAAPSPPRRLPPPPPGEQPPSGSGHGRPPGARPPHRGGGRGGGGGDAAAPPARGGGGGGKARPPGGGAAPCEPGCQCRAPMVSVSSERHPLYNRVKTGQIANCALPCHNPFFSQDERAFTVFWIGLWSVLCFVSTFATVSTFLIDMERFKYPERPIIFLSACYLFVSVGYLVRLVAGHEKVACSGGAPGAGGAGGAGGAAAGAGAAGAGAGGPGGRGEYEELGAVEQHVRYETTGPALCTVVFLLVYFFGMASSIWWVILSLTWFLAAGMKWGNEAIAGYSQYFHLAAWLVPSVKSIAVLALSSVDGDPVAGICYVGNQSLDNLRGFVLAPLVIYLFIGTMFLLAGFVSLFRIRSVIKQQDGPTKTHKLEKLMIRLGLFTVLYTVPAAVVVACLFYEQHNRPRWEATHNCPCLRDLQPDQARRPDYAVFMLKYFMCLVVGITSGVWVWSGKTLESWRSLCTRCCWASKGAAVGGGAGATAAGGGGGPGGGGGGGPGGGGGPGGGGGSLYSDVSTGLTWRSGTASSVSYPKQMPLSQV

- Kd [1]: 14.2 µM
- Kd [2]: 0.95 µM
- Kd [3]: 5.86 µM
Substance: purified mouse CACHD1 extracellular domain (CACHD1ECD) (from UniProt Q6PDJ1 50-1109) (domain or fragment)

— article PMC7615972
